This test deals with Escherichia coli RecA (Escherichia coli) (UniProt P0A7G6).
Sequence of Escherichia coli RecA (Escherichia coli) (P0A7G6 whole entry): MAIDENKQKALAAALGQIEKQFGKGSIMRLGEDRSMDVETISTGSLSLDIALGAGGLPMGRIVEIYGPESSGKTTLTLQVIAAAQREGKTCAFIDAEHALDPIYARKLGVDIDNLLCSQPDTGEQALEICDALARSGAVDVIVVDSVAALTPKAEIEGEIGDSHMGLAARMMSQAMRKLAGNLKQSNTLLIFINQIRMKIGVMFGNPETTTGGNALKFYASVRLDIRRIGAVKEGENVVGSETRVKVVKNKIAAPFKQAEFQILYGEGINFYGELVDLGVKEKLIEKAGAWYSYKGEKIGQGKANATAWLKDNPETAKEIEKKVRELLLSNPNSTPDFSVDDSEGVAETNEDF

B1: Bacillus subtilis DprA (natural protein)
chain: MDQAAVCLTICRINQLLSPSLLLKWWKADPSMSLTSPVLQTVTRDQIKAAALKNEIEQFYPKLPRVLAAYREQGINTIPISSKQYPFWLKSIYDPPAVLFAKGDMTLLSKGRKIGIVGTRNPTAYGKQVVNHLTKEICRKGWVIVSGLASGIDGMSHAASIKAKGRTIGVIAGGFQHIYPRENLQLADHMAKHHILLSEHPPETKPQKWHFPMRNRIISGLSEGVIVVQGKEKSGSLITAYQALEQGREVFAVPGSLFDPYAGGPIKLIQQGAKAIWSAEDIFEELPERNVQYTEPF
Molecule B1 gave an activation of RecAEco (5 uM) dATP hydrolysis on (dT)21 by 0.3 uM DprABsu, against RecAEco alone of 7 to 8 fold.

(Values after article PMC12386762.)
